Test results published in US20220002701A1.

Legend:
[1] = target: SARS-CoV-2 S protein containing D614 with the C-terminal 19 residues of the cytoplasmic tail deleted, on MLV pseudovirus (SARS-CoV-2) (UniProt P0DTC2); experiment: cell-based or functional assay
[2] = target: stabilized soluble SARS-CoV-2 S ectodomain trimer in the pre-fusion conformation (SARS-CoV-2; bacteriophage T4) (UniProt P0DTC2)

Chain of ACE2615-LL-foldon (Q9BYF1 18-615, tags left off, one chain of several): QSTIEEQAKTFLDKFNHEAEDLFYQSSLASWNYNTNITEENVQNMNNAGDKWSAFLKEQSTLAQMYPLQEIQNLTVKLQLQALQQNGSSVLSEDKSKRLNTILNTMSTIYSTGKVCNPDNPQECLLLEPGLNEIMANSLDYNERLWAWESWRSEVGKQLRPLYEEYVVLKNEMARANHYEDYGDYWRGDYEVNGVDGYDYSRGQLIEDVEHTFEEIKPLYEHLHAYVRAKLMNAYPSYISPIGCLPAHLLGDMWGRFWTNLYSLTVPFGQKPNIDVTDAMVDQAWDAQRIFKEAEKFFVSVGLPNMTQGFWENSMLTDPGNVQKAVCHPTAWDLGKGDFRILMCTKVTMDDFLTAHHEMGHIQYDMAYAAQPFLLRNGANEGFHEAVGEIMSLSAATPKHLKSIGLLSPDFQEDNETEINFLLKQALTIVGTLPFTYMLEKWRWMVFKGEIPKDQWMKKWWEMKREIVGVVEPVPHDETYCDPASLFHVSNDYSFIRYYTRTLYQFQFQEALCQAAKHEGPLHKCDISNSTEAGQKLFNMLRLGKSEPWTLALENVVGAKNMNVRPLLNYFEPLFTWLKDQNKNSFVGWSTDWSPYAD

ACE2615-LL-foldon (from UniProt Q9BYF1 18-615; P10104 458-484) (receptor)
IC50, inhibition of MLV-based pseudovirus infection of ACE2-expressing cells [1]: 0.6 µg/mL | Kd [2]: 0.624 nM | ka2 [2]: 3.3 | kdis2 [2]: 0.365 | koff [2]: 8.26e-05 s⁻¹ | kon [2]: 133000 M⁻¹ s⁻¹
